Data published in paper PMC8011978.

What was measured:
[1] = target: LAdV-2 protein LH3 (lizard atadenovirus LAdV-2); experiment: cryo-EM structure
[2] = target: LAdV-2 penton base protein (lizard atadenovirus LAdV-2); experiment: cryo-EM structure

| Substance | stoichiometry N [1] | stoichiometry N [2] |
| --- | --- | --- |
| LAdV-2 protein LH3 (natural protein) | 3 | – |
| LAdV-2 penton base protein (natural protein) | – | 5 |
